{"source": "patent US20230381112A1", "about": "“Compositions and Methods of Manufacturing Amphiphilic Block Copolymers that Form Nanoparticles in Situ” (Vaccuitech North America, Inc., priority 2020, published 2023)", "key": {"NF-κB": {"system": "NF-κB", "test": "Innate immune stimulation: NF-κB activation in THP1 NF-κB SEAP reporter monocytes", "type": "cell-based, human", "conditions": "polymer up to 20 mg/mL in culture medium"}, "[1]": {"system": "human monocyte cells (THP1)", "conditions": "100 μM", "protocol": "The cellular viability of retinal pigmented epithelial like cells (ARPE19) and monocyte like cells (THP1) were assessed following exposure to thermo-responsive polymer at physiologically relevant concentrations.\nTHP1 cells were grown in vitro in cell growth medium and exposed to thermo-responsive polymer micelle that was resuspended in cell growth medium at the concentrations specified up to 20 mg/mL. […] Cell viability was assessed using Promega CellTiter 96® Non-Radioactive Cell Proliferation Assay (MTT)."}, "[2]": {"test": "Concentration-dependent hydrodynamic behavior by DLS in PBS (0.8 to 200 mg/mL, 20-37° C.)", "conditions": "result in words; 5 mg/mL vs 200 mg/mL in PBS", "protocol": "Unless otherwise indicated, the hydrodynamic diameter (DH), also referred to as simply the diameter or as the number average diameter or number mean diameter, of the polymers and copolymers were measured using dynamic light scattering (DLS) at a scattering angle θ=90° using a Zetasizer Ultra (Malvern Panalytical, Malvern, England) equipped with a 633 nm laser, capillary cell (ZSU1002) and ZS Xplorer software. […] For measurements presented, number mean diameter was used for assessment. […] For transition temperature (Ttr) characterization, DLS measurements were performed for temperature sweeps over a maximum range of 4-50° C. at a concentration of 0.5 mg/mL, 5 mg/mL or 200 mg/mL in PBS (150 mM NaCl, pH 7.4). At each step, measurements were performed after reaching steady-state temperature conditions. Characterization of the polymer chain conformational changes was evaluated from the temperature dependence of the hydrodynamic diameter (DH); the Ttr value was determined from the intersection point of two lines formed by the linear regression of a lower horizontal asymptote and a vertical section of the S-shaped curve (sigmoidal curve) fit."}, "[3]": {"test": "DLS temperature sweep in PBS: hydrodynamic diameter (DH), transition temperature (Ttr), solubility/aggregation", "type": "physicochemical", "conditions": "for Ttr: drug conjugate polymers; for Ttr / DH^20° C. / DH^37° C.: PBS at 0.5 mg/mL; for DH^20° C.: hydrodynamic diameter at 20° C.; for DH^37° C.: hydrodynamic diameter at 37° C.", "from_the_text": "Temperature-responsive: Refers to changes in properties of a material with changes in temperature. A material may be described as temperature-responsive if the properties of the material change with respect to changes in temperature. Temperature-responsive polymers are polymers that experience a change in physical properties in response to temperature, such as a change in solubility with changes temperature, which may be described by a lower critical solution temperature (LCST) or upper critical solution temperature (UCST). Preferred embodiments of the temperature-responsive polymers described herein have reduced solubility at elevated temperatures, which may be described by an LCST or transition temperature (Ttr), if the LCST is unknown. Transitions temperatures described herein are experimentally determined by dynamic light scattering or by turbidity, wherein particle size (or light scattering intensity) or absorbance are plotted against temperature to produce a sigmoidal curve. The transition temperature as used herein is the temperature (value on the x-axis) at which the y-value is 50% the maximum value of the sigmoidal curve. Temperature-responsive monomers are monomers that form temperature-responsive polymers. […] Note: temperature-responsive monomers are defined herein as a type of hydrophobic monomer that is hydrophobic at certain temperatures.\nHydrodynamic behavior, thermo-responsiveness, and solubility under aqueous conditions. Prepared polymers and control materials were characterized for nanoparticle hydrodynamic diameter by dynamic light scattering (DLS), thermo-responsivity and overall solubility in PBS."}, "[4]": {"conditions": "polymers of temperature-responsive monomers; cited from earlier work"}, "[5]": {"conditions": "intravitreal injection; cited from earlier work"}}, "note": "Entries after “also recorded” stand apart in the source; their conditions may differ. No end group written: not given here.", "data": [{"molecule": "CCCCc1nc2c(N)nc3ccccc3c2n1CCCCN", "note": "[Compound 34, 1-(4-aminobutyl)-2-butyl-1H-imidazo[4,5-c]quinolin-4-amine]", "values": [{"measurement": "NF-κB activation", "setting": "NF-κB", "value": "strong NF-κB response"}, {"measurement": "viability of THP1 cells", "setting": "[1]", "value": "10-20%"}]}, {"molecule": "CN-p[(NIPMAM)f1-co-(BnMAM)f2]-b-p(HPMA)a-PEG4-Ova [Compound 291]", "values": [{"measurement": "concentration-responsive micellization", "setting": "[2]", "value": "retain concentration responsive micellization properties; also recorded: similarly demonstrated"}, {"measurement": "Ttr", "setting": "[3]", "value": 28, "unit": "°C"}, {"measurement": "DH^20° C.", "setting": "[3]", "value": 7.4, "unit": "nm"}, {"measurement": "DH^37° C.", "setting": "[3]", "value": 40.4, "unit": "nm"}, {"measurement": "thermo-responsive and micelle-forming behavior", "setting": "[3]; result in words, DLS in PBS", "value": "retains temperature responsiveness"}]}, {"molecule": "CN-p[(NIPMAM)f1-co-(BnMAM)f2]-b-p(HPMA)a-PEG4-Ova [Compound 292]", "values": [{"measurement": "Ttr", "setting": "[3]", "value": 32, "unit": "°C"}, {"measurement": "DH^20° C.", "setting": "[3]", "value": 6.1, "unit": "nm"}, {"measurement": "DH^37° C.", "setting": "[3]", "value": 36.5, "unit": "nm"}]}, {"molecule": "CN-p[(NIPMAM)f1-co-(BnMAM)f2]-b-p(HPMA)a-PEG4-Ova [Compound 293]", "values": [{"measurement": "Ttr", "setting": "[3]", "value": 29, "unit": "°C"}, {"measurement": "DH^20° C.", "setting": "[3]", "value": 5.7, "unit": "nm"}, {"measurement": "DH^37° C.", "setting": "[3]", "value": 41.1, "unit": "nm"}]}, {"molecule": "CN-p[(NIPMAM)f1-co-(BnMAM)f2]-b-p(HPMA)a-pip-diABZI [Compound 290]", "values": [{"measurement": "Ttr", "setting": "[3]", "value": 31, "unit": "°C"}, {"measurement": "DH^20° C.", "setting": "[3]", "value": 15.3, "unit": "nm"}, {"measurement": "DH^37° C.", "setting": "[3]", "value": 25.3, "unit": "nm"}]}, {"molecule": "P(Val-Pro-Gly-Val-Gly)(SEQ ID NO: 3) (VPGVG; also: polymer of peptide-derived monomer)", "values": [{"measurement": "LCST or Ttr", "setting": "[4]", "value": 27, "unit": "°C"}]}, {"molecule": "Ranibizumab: Fab molecule used for intravitreal injections", "values": [{"measurement": "vitreal half-life", "setting": "[5]", "value": 76.8, "unit": "h"}]}, {"molecule": "Val-Pro-Gly-Val-Gly (SEQ ID NO: 3) derived polymethacrylate: polymethacrylate derived from the pentapeptide, Class IV of Table 1 (VPGVG; also: polymethacrylate backbone with pendant peptide)", "values": [{"measurement": "LCST or Ttr", "setting": "[4]", "value": "15-55 °C"}]}]}
